In paper PMC2739136:
Substitutions are numbered along the chain they refer to.

Key:
Assay in all cases: pull-down
MBP-TraR N122A, P33905 = target: MBP-TraR N122A, P33905
MBP-TraR A222D, P33905 = target: T1, MBP-TraR A222D, P33905
T1 chain: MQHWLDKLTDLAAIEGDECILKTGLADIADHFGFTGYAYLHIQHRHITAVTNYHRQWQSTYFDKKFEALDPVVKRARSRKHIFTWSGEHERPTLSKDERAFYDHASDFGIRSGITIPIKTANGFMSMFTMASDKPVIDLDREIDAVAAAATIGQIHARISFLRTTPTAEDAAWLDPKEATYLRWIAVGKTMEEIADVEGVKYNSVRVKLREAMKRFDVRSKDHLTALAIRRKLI

MBP-TraR A149E, P33905 = target: T2, MBP-TraR A149E, P33905
T2 chain: T1 chain with A149E, D222A

MBP-TraR A157E, P33905 = target: T3, MBP-TraR A157E, P33905
T3 chain: T1 chain with A157E, D222A

MBP-TraR I229Y, P33905 = target: T4, MBP-TraR I229Y, P33905
T4 chain: T1 chain with D222A, I229Y

MBP-TraR V146E, P33905 = target: T5, MBP-TraR V146E, P33905
T5 chain: T1 chain with V146E, D222A

MBP-TraR A222S, P33905 = target: T6, MBP-TraR A222S, P33905
T6 chain: T1 chain with D222S

MBP-TraR I155F, P33905 = target: T7, MBP-TraR I155F, P33905
T7 chain: T1 chain with I155F, D222A

B1: native TraR (wild type) (protein)
chain: T1 chain with D222A
heterodimer formation (% of wild type) (% of wild type) (MBP-TraR N122A, P33905): 28
heterodimer formation (% of wild type) (% of wild type) (MBP-TraR A222D, P33905): 29
heterodimer formation (% of wild type) (% of wild type) (MBP-TraR A149E, P33905): 12
heterodimer formation (% of wild type) (% of wild type) (MBP-TraR A157E, P33905): 48
heterodimer formation (% of wild type) (% of wild type) (MBP-TraR I229Y, P33905): 23
heterodimer formation (% of wild type) (% of wild type) (MBP-TraR V146E, P33905): 52
heterodimer formation (% of wild type) (% of wild type) (MBP-TraR A222S, P33905): 53
heterodimer formation (% of wild type) (% of wild type) (MBP-TraR I155F, P33905): 50
